Source: the supplement of paper PMC9112550, “Optimization of the antimicrobial peptide Bac7 by deep mutational scanning” (BMC Biology, 2022)
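Further: peptides expressed intracellularly from a pBAD plasmid library in pooled LB shake-flask culture, induced with 0.3% L-arabinose, DNA abundance read by NGS, three biological replicates, DESeq2 with apeglm shrinkage.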

What follows are sequences tested on Escherichia coli TOP10 (assay: shrunken log2 fold change of peptide-encoding DNA abundance (4.5 h post-induction vs induction); higher = less antimicrobial activity (less host growth inhibition)). Conditions: time post-induction: 4.5 h; library: site-saturation at positions 5, 18, 19, 20.
With RRIRSRPPRLPRPRPRPQHGPRP the “shrunken log2 fold change” value was -0.397.
With RRIRTRPPRLPRPRPRPFVEPRP the “shrunken log2 fold change” value was -0.284.
RRIRNRPPRLPRPRPRPWICPRP was tested, and the “shrunken log2 fold change” value was -0.192.
With RRIRWRPPRLPRPRPRPVEVPRP the “shrunken log2 fold change” value was -0.0825.
For RRIRWRPPRLPRPRPRPQKTPRP, the “shrunken log2 fold change” value was 0.119.
With RRIRRRPPRLPRPRPRPWMTPRP the “shrunken log2 fold change” value was 0.0417.
For RRIRMRPPRLPRPRPRPQTLPRP, the “shrunken log2 fold change” value was 0.0245.
For RRIRARPPRLPRPRPRPPLQPRP, the “shrunken log2 fold change” value was 0.557.
RRIRCRPPRLPRPRPRPYKVPRP was tested, and the “shrunken log2 fold change” value was -1.05.
For RRIRCRPPRLPRPRPRPCCSPRP, the “shrunken log2 fold change” value was -0.321.
For RRIRFRPPRLPRPRPRPETCPRP, the “shrunken log2 fold change” value was -0.0911.
RRIRLRPPRLPRPRPRPRDIPRP was tested, and the “shrunken log2 fold change” value was -0.54.
RRIRTRPPRLPRPRPRPQRTPRP was tested, and the “shrunken log2 fold change” value was -0.296.
RRIRPRPPRLPRPRPRPGFSPRP was tested, and the “shrunken log2 fold change” value was -0.0307.
For RRIRPRPPRLPRPRPRPFCYPRP, the “shrunken log2 fold change” value was -0.26.
RRIRTRPPRLPRPRPRPHQIPRP was tested, and the “shrunken log2 fold change” value was 0.269.
In the case of RRIRGRPPRLPRPRPRPMSNPRP, the “shrunken log2 fold change” value is reported as 0.473.
In the case of RRIRSRPPRLPRPRPRPHNHPRP, the “shrunken log2 fold change” value is reported as -0.576.
With RRIRPRPPRLPRPRPRPVLMPRP the “shrunken log2 fold change” value was -0.161.
For RRIRKRPPRLPRPRPRPCLIPRP, the “shrunken log2 fold change” value was -0.36.
In the case of RRIRYRPPRLPRPRPRPTYWPRP, the “shrunken log2 fold change” value is reported as -0.318.
RRIRRRPPRLPRPRPRPEQRPRP was tested, and the “shrunken log2 fold change” value was 0.272.
With RRIRFRPPRLPRPRPRPACPPRP the “shrunken log2 fold change” value was 0.12.
With RRIRCRPPRLPRPRPRPCRKPRP the “shrunken log2 fold change” value was -0.0115.
In the case of RRIRARPPRLPRPRPRPLMPPRP, the “shrunken log2 fold change” value is reported as 0.197.
With RRIRDRPPRLPRPRPRPPAIPRP the “shrunken log2 fold change” value was 0.00372.
With RRIRARPPRLPRPRPRPGHKPRP the “shrunken log2 fold change” value was -0.197.
In the case of RRIRWRPPRLPRPRPRPKAEPRP, the “shrunken log2 fold change” value is reported as -0.015.
With RRIRERPPRLPRPRPRPIDWPRP the “shrunken log2 fold change” value was -0.0206.
In the case of RRIRQRPPRLPRPRPRPLGNPRP, the “shrunken log2 fold change” value is reported as -0.263.
RRIRNRPPRLPRPRPRPVRPPRP was tested, and the “shrunken log2 fold change” value was 0.555.
With RRIRTRPPRLPRPRPRPTTNPRP the “shrunken log2 fold change” value was -0.19.
For RRIRVRPPRLPRPRPRPANRPRP, the “shrunken log2 fold change” value was -0.179.
With RRIRNRPPRLPRPRPRPSRHPRP the “shrunken log2 fold change” value was -0.061.
RRIRSRPPRLPRPRPRPGEAPRP was tested, and the “shrunken log2 fold change” value was 0.287.
For RRIRGRPPRLPRPRPRPINCPRP, the “shrunken log2 fold change” value was -0.0247.
RRIRRRPPRLPRPRPRPYHSPRP was tested, and the “shrunken log2 fold change” value was -0.017.
With RRIRWRPPRLPRPRPRPFKGPRP the “shrunken log2 fold change” value was -0.0135.
In the case of RRIRVRPPRLPRPRPRPQPIPRP, the “shrunken log2 fold change” value is reported as -0.375.
In the case of RRIRGRPPRLPRPRPRPIQLPRP, the “shrunken log2 fold change” value is reported as 0.043.
With RRIRHRPPRLPRPRPRPSAHPRP the “shrunken log2 fold change” value was -0.139.
With RRIRIRPPRLPRPRPRPWPDPRP the “shrunken log2 fold change” value was -0.207.
With RRIRARPPRLPRPRPRPVSCPRP the “shrunken log2 fold change” value was 0.473.
With RRIRVRPPRLPRPRPRPFSDPRP the “shrunken log2 fold change” value was -0.263.
For RRIRSRPPRLPRPRPRPGGMPRP, the “shrunken log2 fold change” value was 0.446.
For RRIRCRPPRLPRPRPRPNSYPRP, the “shrunken log2 fold change” value was -0.54.
RRIRLRPPRLPRPRPRPLTMPRP was tested, and the “shrunken log2 fold change” value was -0.427.
In the case of RRIRNRPPRLPRPRPRPPFRPRP, the “shrunken log2 fold change” value is reported as 0.153.
For RRIRSRPPRLPRPRPRPEVGPRP, the “shrunken log2 fold change” value was 0.726.
For RRIRERPPRLPRPRPRPPSFPRP, the “shrunken log2 fold change” value was -0.126.
In the case of RRIRWRPPRLPRPRPRPNIAPRP, the “shrunken log2 fold change” value is reported as -0.121.
RRIRRRPPRLPRPRPRPFGKPRP was tested, and the “shrunken log2 fold change” value was 0.0788.
RRIRGRPPRLPRPRPRPAGTPRP was tested, and the “shrunken log2 fold change” value was 0.752.
For RRIRYRPPRLPRPRPRPDTLPRP, the “shrunken log2 fold change” value was -0.195.
RRIRARPPRLPRPRPRPCIGPRP was tested, and the “shrunken log2 fold change” value was 0.0942.
For RRIRRRPPRLPRPRPRPECFPRP, the “shrunken log2 fold change” value was 0.3.
RRIRCRPPRLPRPRPRPFPTPRP was tested, and the “shrunken log2 fold change” value was -0.249.
RRIRGRPPRLPRPRPRPYAEPRP was tested, and the “shrunken log2 fold change” value was 1.19.
For RRIRHRPPRLPRPRPRPASEPRP, the “shrunken log2 fold change” value was -0.131.
RRIRRRPPRLPRPRPRPESRPRP was tested, and the “shrunken log2 fold change” value was 0.0681.
For RRIRTRPPRLPRPRPRPNSPPRP, the “shrunken log2 fold change” value was -0.221.
In the case of RRIRARPPRLPRPRPRPWCSPRP, the “shrunken log2 fold change” value is reported as -0.155.
For RRIRYRPPRLPRPRPRPHINPRP, the “shrunken log2 fold change” value was -0.806.
With RRIRQRPPRLPRPRPRPVDEPRP the “shrunken log2 fold change” value was -0.249.
With RRIRRRPPRLPRPRPRPVVRPRP the “shrunken log2 fold change” value was 0.274.
In the case of RRIRWRPPRLPRPRPRPPPCPRP, the “shrunken log2 fold change” value is reported as 0.638.
RRIRVRPPRLPRPRPRPNESPRP was tested, and the “shrunken log2 fold change” value was -0.374.
In the case of RRIRMRPPRLPRPRPRPMCKPRP, the “shrunken log2 fold change” value is reported as 0.00898.
RRIRTRPPRLPRPRPRPHMKPRP was tested, and the “shrunken log2 fold change” value was -0.712.
For RRIRNRPPRLPRPRPRPLTAPRP, the “shrunken log2 fold change” value was -0.221.
In the case of RRIRTRPPRLPRPRPRPATAPRP, the “shrunken log2 fold change” value is reported as 0.362.
For RRIRNRPPRLPRPRPRPIRVPRP, the “shrunken log2 fold change” value was -0.0394.
For RRIRHRPPRLPRPRPRPMINPRP, the “shrunken log2 fold change” value was -0.305.
RRIRTRPPRLPRPRPRPWCCPRP was tested, and the “shrunken log2 fold change” value was -0.227.
For RRIRFRPPRLPRPRPRPAKVPRP, the “shrunken log2 fold change” value was 0.333.
In the case of RRIRDRPPRLPRPRPRPHGPPRP, the “shrunken log2 fold change” value is reported as 0.0119.
For RRIRCRPPRLPRPRPRPNLCPRP, the “shrunken log2 fold change” value was -0.427.
In the case of RRIRFRPPRLPRPRPRPKMCPRP, the “shrunken log2 fold change” value is reported as -0.487.
RRIRGRPPRLPRPRPRPLWEPRP was tested, and the “shrunken log2 fold change” value was 1.51.
With RRIRIRPPRLPRPRPRPHCRPRP the “shrunken log2 fold change” value was -0.341.
In the case of RRIRERPPRLPRPRPRPQTRPRP, the “shrunken log2 fold change” value is reported as 0.0866.
For RRIRGRPPRLPRPRPRPYVTPRP, the “shrunken log2 fold change” value was 0.0521.
With RRIRWRPPRLPRPRPRPCECPRP the “shrunken log2 fold change” value was -0.151.
RRIRIRPPRLPRPRPRPYNRPRP was tested, and the “shrunken log2 fold change” value was -0.01.
In the case of RRIRSRPPRLPRPRPRPGMPPRP, the “shrunken log2 fold change” value is reported as -0.122.
In the case of RRIRVRPPRLPRPRPRPRKYPRP, the “shrunken log2 fold change” value is reported as -0.0723.
In the case of RRIRTRPPRLPRPRPRPIPSPRP, the “shrunken log2 fold change” value is reported as -0.236.
RRIRLRPPRLPRPRPRPEWGPRP was tested, and the “shrunken log2 fold change” value was 0.504.
With RRIRHRPPRLPRPRPRPTSEPRP the “shrunken log2 fold change” value was 0.0261.
In the case of RRIRTRPPRLPRPRPRPSHYPRP, the “shrunken log2 fold change” value is reported as -1.32.
For RRIRLRPPRLPRPRPRPKMQPRP, the “shrunken log2 fold change” value was 0.282.
RRIRSRPPRLPRPRPRPPKKPRP was tested, and the “shrunken log2 fold change” value was 0.282.
For RRIRNRPPRLPRPRPRPNSTPRP, the “shrunken log2 fold change” value was 2.34.
With RRIRDRPPRLPRPRPRPMIIPRP the “shrunken log2 fold change” value was 0.248.
With RRIRYRPPRLPRPRPRPKEAPRP the “shrunken log2 fold change” value was -0.0135.
RRIRSRPPRLPRPRPRPGKLPRP was tested, and the “shrunken log2 fold change” value was -0.0662.
With RRIRIRPPRLPRPRPRPGGIPRP the “shrunken log2 fold change” value was -0.279.
RRIRSRPPRLPRPRPRPCFLPRP was tested, and the “shrunken log2 fold change” value was -0.642.
In the case of RRIRNRPPRLPRPRPRPPWQPRP, the “shrunken log2 fold change” value is reported as 0.161.
With RRIRLRPPRLPRPRPRPTWNPRP the “shrunken log2 fold change” value was -0.114.
In the case of RRIRERPPRLPRPRPRPTKCPRP, the “shrunken log2 fold change” value is reported as 0.0642.
RRIRHRPPRLPRPRPRPQNYPRP was tested, and the “shrunken log2 fold change” value was -1.11.
RRIRRRPPRLPRPRPRPCQVPRP was tested, and the “shrunken log2 fold change” value was 0.0476.
In the case of RRIRMRPPRLPRPRPRPADVPRP, the “shrunken log2 fold change” value is reported as 0.0241.
In the case of RRIRHRPPRLPRPRPRPRHTPRP, the “shrunken log2 fold change” value is reported as -0.0794.
With RRIRVRPPRLPRPRPRPCIVPRP the “shrunken log2 fold change” value was -0.0169.
RRIRKRPPRLPRPRPRPNDKPRP was tested, and the “shrunken log2 fold change” value was -0.0282.
RRIRPRPPRLPRPRPRPFDNPRP was tested, and the “shrunken log2 fold change” value was -0.299.
With RRIRARPPRLPRPRPRPVMWPRP the “shrunken log2 fold change” value was 0.555.
In the case of RRIRDRPPRLPRPRPRPKQDPRP, the “shrunken log2 fold change” value is reported as 0.172.
With RRIRVRPPRLPRPRPRPEESPRP the “shrunken log2 fold change” value was 0.246.
RRIRKRPPRLPRPRPRPASVPRP was tested, and the “shrunken log2 fold change” value was 0.291.
With RRIRARPPRLPRPRPRPTQVPRP the “shrunken log2 fold change” value was 0.224.
RRIRHRPPRLPRPRPRPATNPRP was tested, and the “shrunken log2 fold change” value was 0.607.
For RRIRYRPPRLPRPRPRPCKIPRP, the “shrunken log2 fold change” value was -0.116.
In the case of RRIRGRPPRLPRPRPRPAQVPRP, the “shrunken log2 fold change” value is reported as 0.274.
RRIRARPPRLPRPRPRPTFSPRP was tested, and the “shrunken log2 fold change” value was 0.233.
RRIRFRPPRLPRPRPRPMCKPRP was tested, and the “shrunken log2 fold change” value was -0.169.
RRIRHRPPRLPRPRPRPIKHPRP was tested, and the “shrunken log2 fold change” value was -0.341.
With RRIRIRPPRLPRPRPRPPKSPRP the “shrunken log2 fold change” value was -0.0284.
For RRIRKRPPRLPRPRPRPSPYPRP, the “shrunken log2 fold change” value was -0.0694.
For RRIRWRPPRLPRPRPRPNQDPRP, the “shrunken log2 fold change” value was 0.0957.
For RRIRIRPPRLPRPRPRPLIPPRP, the “shrunken log2 fold change” value was -0.692.
With RRIRFRPPRLPRPRPRPPIRPRP the “shrunken log2 fold change” value was -0.0123.
RRIRSRPPRLPRPRPRPMNHPRP was tested, and the “shrunken log2 fold change” value was -0.256.
